Results reported in article PMC2855648.

Assays:
Assay in all cases: initial velocity, spectrophotometric DTP/DTNB thiol assay
Type in all cases: biochemical, Escherichia coli
[1] = system: CC(=O)SCCNC(=O)CCNC(=O)[C@H](O)C(C)(C)COP(=O)(O)OP(=O)(O)OC[C@H]1O[C@@H](n2cnc3c(N)ncnc32)[C@H](O)[C@@H]1OP(=O)(O)O; conditions: fixed saturating kanamycin B, optimum pH 5.6, room temperature
[2] = system: NC[C@@H]1O[C@H](O[C@H]2[C@@H](O)[C@H](O[C@@H]3[C@@H](O)[C@H](N)C[C@H](N)[C@H]3O[C@H]3O[C@H](CN)[C@@H](O)[C@H](O)[C@H]3N)O[C@@H]2CO)[C@H](N)[C@@H](O)[C@@H]1O; conditions: fixed saturating AcCoA, optimum pH 5.6, room temperature
[3] = system: NC[C@H]1O[C@H](O[C@H]2[C@H](O)[C@@H](O[C@H]3O[C@H](CO)[C@@H](O)[C@H](N)[C@H]3O)[C@H](N)C[C@@H]2N)[C@H](N)[C@@H](O)[C@@H]1O; conditions: fixed saturating AcCoA, optimum pH 5.6, room temperature

AAC(6′)-Ib-wt (Escherichia coli; R102W/Y179D)
Km [1]: 35 ± 2 µM | kcat [1]: 2.32 ± 0.0667 s⁻¹ | kcat/Km [1]: 66700 M⁻¹ s⁻¹ | Km [2]: 20 ± 1 µM | kcat [2]: 3.08 ± 0.05 s⁻¹ | kcat/Km [2]: 150000 M⁻¹ s⁻¹ | Km [3]: 0.27 ± 0.01 µM | kcat [3]: 2.27 ± 0.05 s⁻¹ | kcat/Km [3]: 8.38e+06 M⁻¹ s⁻¹
